From publication PMC3553973

Molecular target: T1, SacUVDE (UV damage endonuclease) (Sulfolobus acidocaldarius, UniProt Q4J9T1 1-289)
T1 sequence: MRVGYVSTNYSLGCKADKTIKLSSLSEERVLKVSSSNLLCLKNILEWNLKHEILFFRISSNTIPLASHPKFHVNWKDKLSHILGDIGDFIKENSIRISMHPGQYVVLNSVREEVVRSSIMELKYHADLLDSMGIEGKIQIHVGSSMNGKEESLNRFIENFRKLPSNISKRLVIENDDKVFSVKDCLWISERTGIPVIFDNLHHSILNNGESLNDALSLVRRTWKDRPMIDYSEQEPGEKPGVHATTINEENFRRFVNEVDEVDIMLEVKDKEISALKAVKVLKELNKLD
Assay: X-ray crystallography

B1: 15-mer duplex with 6-4 photoproduct (dsDNA)
DNA 1: GCGTCCTTGACGACG
DNA 2: CGTCGTCAAGGACGC
modifications: 6-4 photoproduct at T7-T8 of strand 1
B1: binds.
